Values quoted from earlier work, collected in publication PMC6753945.

Target: CD28 (Homo sapiens) (UniProt P10747)

Kd: 200 nM
Substance: CD80 (from UniProt P33681)
